According to the DeepSol protein solubility set:

assay: soluble on expression in E. coli; label from the status in PepcDB or PDB records

| Sequence | soluble on expression in E. coli |
| --- | --- |
| MGSDKIHHHHHHMDDEIKKAITNYDDRPAMTKSTQKVFKNQQEMRTVLRDEVEVWQLIHQTDKQAEANIKPKLPPLAGARIMFRHFDFCLFSHDESERMAAYLPNDGIYTQNYRYLKRLIALMYPSYNLRQALDVIYHLEMMAPVRALTIDRYLVPVNNGIWNLHQHQLIPFSPKYVFTTKIATNYRDNATTPNIKGWTIDNWFDELACGDDEIVELLWEVINDCLNGNYTRKKAIFLFSELGNSGKGTFQELITNLVGMDNVGTLKVNEFDVRFRLAGLVGKTVCIGDDIAPDIYIKDSSNFNSVVTGDLVNIEFKGQDGYTSALRCTIVQSCNGLPNFHNKGGTMRRLVIVPFNNHFQGKGDNWSIRNDYITRKDVLEYVLYKALQLDFDKFSVPEVSKKALADFELDNNPLIGFKVSFFDKLKVDKVPTYYLYEYYKKYCSINGLKALGQSKFIRRFMTCVPLYEKKQAKLSATDINTLDVFKQQDEIIAWPREPLAGKKYNCIVQSTL | not soluble |
| MAGDPMATLTRLFIHPVKSMRGIGLTHALADVSGLAFDRIFMITEPDGTFITARQFPQMVRFTPSPVHDGLHLTAPDGSSAYVRFADFATQDAPTEVWGTHFTARIAPDAINKWLSGFFSREVQLRWVGPQMTRRVKRHNTVPLSFADGYPYLLANEASLRDLQQRCPASVKMEQFRPNLVVSGASAWEEDSWKVIRIGDVVFDVVKPCSRCIFTTVSPEKGQKHPAGEPLKTLQSFRTAQDNGDVDFGQNLIARNSGVIRVGDEVEILATAPAKIYGAAAADDTANITQQPDANVDIDWQGQAFRGNNQQVLLEQLENQGIRIPYSCRAGICGSCRVQLLEGEVTPLKKSAMGDDGTILCCSCVPKTALKLTRLEHHHHHH | not soluble |
| GPGSMAKHYKAIFAMSYEAELYAHLQASQRFNAGADAAVVLHADSDEAMRRHLGISIDPINGTNCCVGGVWQAPMTLVGIALDGVPIAGVMNRIFDYPLTCTYGPAATEPQEKACVPGLAVVLNTPTPASPFVVFDGGLVPAPGQMEQQLECTCETPLAVCRSSTTKEVFLQRLLTQLEPCNAVYSRGAGYKQYHLLKKMLTGRHVAHEAITPADIFVCPPGTIEKWDCCVVHAFLYALGGEIFDQNGVPIRYPLVGTYGAATTSLSEIAALTDGLVAVTPYAMHEVARRLGWTLTLAP | not soluble |
| GPGSMEQGAFNDVAKKALEFRNRYYKMLDDPQDRLNVAGLYAPDVPMVCEWNGHPLSTVDDVRNYISALPKTSHQVDMVDAQPLPDNQDGDSFLLTVHGIVTYNDEHRREFYQRMVIRRFEQRYYILNDYYRWLSERSQ | soluble |
| MAHHHHHHSLNDYTQQLQGKKDYLKTLFAGLDVPEWEVYESPDKHYRMRAEFRIWHEGGEMFYAMFEKGQKASGASMIRCDRFEAASEAVNRLMPELIAAAAQSPELKKRWYAVEFLSTLSGEMLVTMIYHKRLDAEWMQAAQALQQQLDISVIGRSRGQKIVLKQDYVTETLKVGNRDFRYRQIEGSFTQPNAAVCQKMLEWACRTAEGLGSDLLELYCGNGNFTLPLSRYFRQVLATEISKTSVSAAQWNIEANRIGNIKIARLSAEEFTEAYTGKREFKRLKDGGIALTDYAFSTIFVDPPRAGIDEETLKLVSQFDNIIYISCNPETLRANLDTLAETHAVERAALFDQFPFTHHIESGVLLKKKILEG | soluble |
| MDVSFEFEHYQVRLIKSSDAVTIANYFMRNRHHLAPWEPKRSHAFFTPEGWKQRLLQLVELHKHNLAFYFVVVDKNEHKIIGTVSYSNITRFPFHAGHVGYSLDSEYQGKGIMRRAVNVTIDWMFKAQNLHRIMAAYIPRNEKSAKVLAALGFVKEGEAKKYLYINGAWEDHILTSKINDDWKP | soluble |
| GQDRSPIETQNVETVLRLFDEGWGAQDGWRDVWRETMTPGFRSIFHSNQAVEGIEQAIAFNAVLFEGFPRLEVVVENVTVEGDNVVVQARLTGAQDGPFLGVPPSGQMVDVPDVTLFTLADGQVIEMRYFTDLLAVMTAISAPPEN | soluble |
| MAKAFEEQRRSPDLEALPFEDRIGLLVDREAAERDTRRLTTRLKIAALRQTACVEDVDLRTPRGIDRAVFAKLVEGRWIDRHENLLVTGATGLGKSWLACALGHKACRDNRSVLYHRVPRLFEALALARGDGRYARLLKSLGRAQLLILDDWGLSVLTAAERRDLLEILEDRHGRASTIVTSQLPWTPGMEPLGTPRSPTPFSIASSTTPTASSSPEKACENAAPKPSPLTANQNTDSISHRPAAALEHHHHHH | not soluble |
| MKLQQLKYALEVYQHNLNVSEAAEALFTSQPGISKQIKLLEEEIGIQIFIRSGKRVVSVSQPGKVVLDIAERILRDVQNIKNIGSEFTGQDSGSLTVATTHTQARYALPLIVADFVKRYPKVNLTIKQGSPAAIARMVTSGEADLAIVTERIDDHPELGKLPCYDWTHAVIVPNDHPLLECRNPLRIEDLARFPLITYEFAFNAGSSIARAFSKARLEQPDVALAAADTDVLKTYVRLGLGVGLMAKMAYNPDTDGDLQLVDAAHLFEPSPTWIALRSDTYLRGYAYDFIQAFAPHLTREKVDRILYTPISEDFSI | soluble |
| HHHHHHGHMRTNKDRLVRISVVGEIAPAKMRSPYSVTTEGTVRVIPVLGGITYNVKVGDSAYGWAGDHVEPGVSVMARRKEEEIPLMTLSCIGNEVIVMSGDAKGSRGFVTGKHGGVNHVLVHFEEEVLGKLMVGDKILIKAWGQGLKLLDHPDVKVMNIDPDLFEKLGIQEKNGKIHVPVVAKIPAHMMGSGIGASSSASTDYDIMASNPEDLGVADLKLGDIVAIQDHDNSYGVGKYRKGAVSIGVVVHSACVSAGHGPGVVVIMTGDESKILPEEVERANISDYLVR | soluble |
| MRITSTANPRIKELARLLERKHRDSQRRFLIEGAREIERALQAGIELEQALVWEGGLNPEEQQVYAALGRVGRLALLEVSEAVLKKLSVRDNPAGLIALARMPERTLEEYRPSPDALILVAVGLEKPGNLGAVLRSADAAGAEAVLVAGGVDLYSPQVIRNSTGVVFSLRTLAASESEVLDWIKQHNLPLVATTPHAEALYWEANLRPPVAIAVGPEHEGLRAAWLEAAQTQVRIPMQGQADSLNVSVSAALLLYEALRQRLLRDRLTKTHSTL | soluble |
| MKAAAKRISDGVYWTGVLDWDLRNYHGYTLQGTTYNAYLVCGDEGVALIDNSYPGTFDELMARVEDALQQVGMERVDYIIQNHVEKDHSGVLVELHRRFPEAPIYCTEVAVKGLLKHYPSLREAEFMTVKTGDVLDLGGKTLTFLETPLLHWPDSMFTLLDEDGILFSNDAFGQHLCCPQRLDREIPEYILMDAARKFYANLITPLSKLVLKKFDEVKELGLLERIQMIAPSHGQIWTDPMKIIEAYTGWATGMVDERVTVIYDTMHGSTRKMAHAIAEGAMSEGVDVRVYCLHEDDRSEIVKDILESGAIALGAPTIYDEPYPSVGDLLMYLRGLKFNRTLTRKALVFGSMGGNGGATGTMKELLAEAGFDVACEEEVYYVPTGDELDACFEAGRKLAAEIRR | soluble |
| MSLTSVVFLNPGNSTETFWVSYSQFMQAAARDLGLDLRILYAERDPQNTLQQARELFQGRDKPDYLMLVNEQYVAPQILRLSQGSGIKLFIVNSPLTLDQRELIGQSRQNYSDWIGSMVGDDEEAGYRMLKELLHKLGPVPAGHGIELLAFSGLKVTPAAQLRERGLRRALAEHPQVHLRQLVYGEWNRERAYRQAQQLLKRYPKTQLVWSANDEMALGAMQAARELGRKPGTDLLFSGVNSSPEALQALIDGKLSVLEAGHFTLGGWALVALHDDALGLDARRLGGPDWQLSLFQEGHHHHHH | not soluble |
| AHHHHHHGSNKRFPFPVGEPDFIQGDEAIARAAILAGCRFYAGYPITPASEIFEAMALYMPLVDGVVIQMEDEIASIAAAIGASWAGAKAMTATSGPGFSLMQENIGYAVMTETPVVIVDVQRSGPSTGQPTLPAQGDIMQAIWGTHGDHSLIVLSPSTVQEAFDFTIRAFNLSEKYRTPVILLTDAEVGHMRERVYIPNPDEIEIINRKLPRNEEEAKLPFGDPHGDGVPPMPIFGKGYRTYVTGLTHDEKGRPRTVDREVHERLIKRIVEKIEKNKKDIFTYETYELEDAEIGVVATGIVARSALRAVKMLREEGIKAGLLKIETIWPFDFELIERIAERVDKLYVPEMNLGQLYHLIKEGANGKAEVKLISKIGGEVHTPMEIFEFIRREFK | soluble |
| MGDKQFAVIGLGRFGLAVCKELQDSGSQVLAVDINEDRVKEAAGFVSQAIVANCTHEETVAELKLDDYDMVMIAIGADVNASILATLIAKEAGVKSVWVKANDRFQARVLQKIGADHIIMPERDMGIRVARKMLDKRVLEFHPLGSGLAMTEFVVGSRLMGKTLSDLALCKVEGVQVLGFKRGPEIIKAPDMSTTLEIGDLIIVVGPQDKLANKLKSLEHHHHHH | soluble |
